Reference: patent US20240018513A1, “SYNTHETIC INTRONS FOR TARGETED GENE EXPRESSION” (FRED HUTCHINSON CANCER CENTER, priority 2020, published 2024)

Tests used:
Format in all cases: cell-based
SF3B1-mutant K562 cells = experiment: Mini-screen: pooled synthetic intron mini-library in HSV-TK, GCV treatment, full-length intron sequencing from genomic DNA
Excerpt: (§1) Therefore, a massively parallel splicing assay was developed to map and functionally interrogate key sequence features within the synthetic intron. First, a pilot mini-library of eight synthetic introns was synthesized, seven of which were much shorter (lengths of 100-158 nt) than the parent synthetic intron (synMTERFD3i1-250), and each with one or more perturbations to potentially critical features (FIG. 2E). This mini-library was cloned into HSV-TK, introduced into WT or SF3B1-mutant K562 cells with a lentiviral vector at a low multiplicity of infection, and treated with GCV. Relative depletion of each construct was measured by high-throughput sequencing of the entire introns from genomic DNA after six days of treatment (TABLE 1).
(§2) Each synthetic intron used in the mini-library was ordered individually as a gBlock (Integrated DNA Technologies), consisting of the desired intron flanked by homology arms for cloning (5′ arm: […] (SEQ ID NO:158); 3′ arm: […] (SEQ ID NO:159; TABLE 3). The gBlocks were then mixed in equal proportions before being cloned into hPGK-PuroR-P2A-HSV-TK using a previously published strategy for pooled cloning (Thomas, J. D. et al. RNA isoform screens uncover the essentiality and tumor-suppressor activity of ultraconserved poison exons. Nature genetics 52, 84-94 (2020), incorporated herein by reference in its entirety). This intron mix was then amplified using NEBNext High Fidelity Ready Mix (New England Biolabs) and purified using 1.8×AMPure XP SPRI beads (Beckman Coulter). The backbone for the library was amplified using Q5 polymerase (New England Biolabs). The library was transformed and amplified using Endura ElectroCompetent Cells (Lucigen, 60242-2) and large LB plates. The library was maxiprepped using a Macherey-Nagel MaxiPrep kit (Thermo Fisher Scientific, Cat 740414.10).
(§3) WT or SF3B1-mutant K562 cells were infected with lentivirus encoding the mini-library at an MOI of 0.3 and untreated or treated with GCV (100 ug/mL) for 6 days. Genomic DNA was collected at day 6 and the resulting Illumina libraries were sequenced with 2×150 bp reads (Illumina MiSeq). Depletion/enrichment of each construct was estimated as follows. For each sample, reads were normalized to the total reads mapped. The relative fraction of reads mapping to each intron was then estimated by dividing the numbers of normalized reads mapped to an intron by the total reads mapped in the sample. The standard deviation was calculated using the sample proportion P for each intron (σ=sqrt [P(1−P)/n]). A fold-change was calculated for each intron by dividing the proportion of the intron in the treated GCV samples by the fraction of the intron in the untreated samples. Error propagation was used to estimate the standard deviation. The final relative fold-changes were computed by normalizing fold-changes such that the fold-change of synMTERFD3i1-250 in the pilot screen was identical to the experimentally measured fold-change in a single-construct experiment (FIG. 2C, 100 μg/mL of GCV).

WT K562 cells = experiment: as above; conditions: genotype WT (SF3B1+/+) K562; GCV 100 ug/mL; day 6; vector hPGK-PuroR-P2A-HSV-TK
Excerpt: as §1, §2, §3

[1] = test system: isogenic WT or SF3B1-mutant K562 cells; experiment: Fluorescent reporter (mEmerald interrupted by synthetic intron, mCardinal control), flow cytometry
Excerpt: These six endogenous introns served as starting points for the development of synthetic introns that functioned as compact and modular molecular switches. […] These choices were guided by the increased complexity of the 3′ss versus 5′ss, SF3B1's functional role in 3′ss recognition, and the importance of exon length in splicing. Each split mEmerald sequence was cloned into a vector with constitutive expression of the non-overlapping fluorophore mCardinal (FIG. 1E). The resulting vectors permitted quantitative assessment of mutation-dependent protein production by measuring the ratio of mEmerald to mCardinal in cells with or without an SF3B1 mutation via flow cytometry.
Each construct was transfected into isogenic WT or SF3B1-mutant K562 cells and mutation-dependent splicing and protein production was measured. […] Mutation-dependent protein production arose from mutation-dependent splicing changes, as designed (FIGS. 6G and 6H). These proof-of-principle studies confirmed the feasibility of using synthetic introns for mutation-dependent gene expression. […]

[2] = test system: isogenic WT or SF3B1-mutant K562 cells; experiment: Single-construct cell viability (CellTiter-Glo, ATP) of cells expressing HSV-TK with synthetic intron, GCV treatment; conditions: 0-100 μg/mL GCV, 3 days
Excerpt: This split HSV-TK sequence or an intronless HSV-TK was cloned into a lentiviral expression vector. Isogenic WT or SF3B1-mutant K562 cells were infected. Positive integrants were selected and treated with GCV (FIG. 2B).
Stable cell lines were made by transducing K562 or MCF10A cells with lentivirus at multiplicities of infection (MOIs) of 1 (FIGS. 2C, 2G, and 2H), 0.3 (mini-library), and 0.1 (full library). Positive integrants were selected by treating with puromycin (hPGK-PuroR-P2A-HSV-TK) or flow sorting for mCherry (hPGK-HSV-TK-P2A-mCherry).
Cell viability was measured for single-construct experiments in cell culture by the CellTiter-Glo Luminescent Cell Viability Assay (Promega). For FIG. 2C, K562 cells expressing HSV-TK with the indicated synthetic introns were seeded at a density of 10,000 cells/100 μL/well in a 96-well plate in biological triplicate, and then treated with 0-100 μg/mL GCV or untreated (negative control). Viability measured after 3 days of treatment. For FIG. 2G, K562 cells expressing HSV-TK with the indicated synthetic introns were seeded at a density of 5,000 cells/100 μL/well in 96-well plate in biological triplicate, and then treated with 100 μg/mL GCV or PBS (negative control). Viability was measured after 11 days of treatment.

B1: intron_control: 250 nt parent synthetic intron from MTERFD3 intron 1 (first 100 and last 150 nt); SEQ ID NO 63/71 (nucleic acid)
DNA 1: GTGAGTCGCCCCCTTCCTCTGCTCCTGGGCGTGTTCCTCACCAGCGGCGCCGCAGCGGTCAGGGCCCGCAAAACCCCACGCCTCGCCAGACGCTCAGCTCCAGGAAGCAAATGCAGCTGGTGCAGGAGAGGGAAATGGGAATTAGGGTGGTGGCAGAGCCCAAAGAGGCCTTGTAGGCCATGGTAAGGCATTTCTATGTTTTATTTTACTTTGTCTTTATCCTAAAATGCCATTGGCAAGTTTATTGCAG
DNA 2: GTGAGTCGCCCCCTTCCTCTGCTCCTGGGCGTGTTCCTCACCAGCGGCGCCGCAGCGGTCAGGGCCCGCAAAACCCCACGCCTCGCCAGACGCTCAGCTCCAGGAAGCAAATGCAGCTGGTGCAGGAGAGGGAAATGGGAATTAGGGTGGTGGCAGAGCCCAAAGAGGCCTTGTAGGCCATGGTAAGGCATTTCTATGTTTTATTTTACTTTGTCTTTATCCTAAAATGCCATTGGCAAGTTTATTGCAG
- depletion / mutation responsiveness in mini-screen (SF3B1-mutant K562 cells; SF3B1-mutant vs WT K562, GCV, six days): markedly depleted in SF3B1-mutant, but not WT, cells
- fold-change (estimated fold-change in intron abundance in gDNA) (SF3B1-mutant K562 cells; genotype K700E (SF3B1+/K700E) K562, GCV 100 ug/mL, day 6, vector hPGK-PuroR-P2A-HSV-TK): 0.23
- fold-change (estimated fold-change in intron abundance in gDNA) (WT K562 cells): 0.96
- mutation-dependent specificity [1]: 2 fold
- viability upon GCV treatment ([2]; SF3B1-mutant K562 cells): a rapid and dose-dependent loss of viability, indistinguishable to that caused by intronless HSV-TK
- viability upon GCV treatment ([2]; WT K562 cells): no significant differences in viability from untransduced cells
